Measurements taken from patent US20250277025A1.

Biological target: human CLDN18.2 expressed on cells (human)
Test: cell-based or functional assay

For Human IgG1 isotype antibody, the ADCC (PBMC) on KATOIII CLDN18.2 cells, LDH: max (% cytotoxity) (run A) was 0.3%, the ADCC (PBMC) on KATOIII CLDN18.2 cells, LDH: max (% cytotoxity) (run B) was -5.51% and the ADCC (PBMC) on KATOIII CLDN18.2 cells, LDH: max (% cytotoxity) (run C) was -7.64%. It also gave an ADCC (PBMC) on NCI-N87 CLDN18.2 cells, LDH: max (% cytotoxity) (run A) of -6.73%, an ADCC (PBMC) on NCI-N87 CLDN18.2 cells, LDH: max (% cytotoxity) (run B) of -11.7% and an ADCC (PBMC) on NCI-N87 CLDN18.2 cells, LDH: max (% cytotoxity) (run C) of -9.22%.
